Legend:
Gcl [1] = molecular target: T1, Gcl (Pseudomonas aeruginosa, UniProt Q9I3L0); assay: 1H-NMR, decrease of hydrated glyoxylate peak; type: biochemical; details: 50 mM sodium phosphate in D2O, 1 mM MgCl2, pD 7.0; 37 °C; 22 h; no Hyi
T1 construct: full-length ORF in pET-19m, N-terminal His6 tag cut with TEV protease, expressed in E. coli Rosetta, Ni-NTA
T1 sequence (Q9I3L0 1-591): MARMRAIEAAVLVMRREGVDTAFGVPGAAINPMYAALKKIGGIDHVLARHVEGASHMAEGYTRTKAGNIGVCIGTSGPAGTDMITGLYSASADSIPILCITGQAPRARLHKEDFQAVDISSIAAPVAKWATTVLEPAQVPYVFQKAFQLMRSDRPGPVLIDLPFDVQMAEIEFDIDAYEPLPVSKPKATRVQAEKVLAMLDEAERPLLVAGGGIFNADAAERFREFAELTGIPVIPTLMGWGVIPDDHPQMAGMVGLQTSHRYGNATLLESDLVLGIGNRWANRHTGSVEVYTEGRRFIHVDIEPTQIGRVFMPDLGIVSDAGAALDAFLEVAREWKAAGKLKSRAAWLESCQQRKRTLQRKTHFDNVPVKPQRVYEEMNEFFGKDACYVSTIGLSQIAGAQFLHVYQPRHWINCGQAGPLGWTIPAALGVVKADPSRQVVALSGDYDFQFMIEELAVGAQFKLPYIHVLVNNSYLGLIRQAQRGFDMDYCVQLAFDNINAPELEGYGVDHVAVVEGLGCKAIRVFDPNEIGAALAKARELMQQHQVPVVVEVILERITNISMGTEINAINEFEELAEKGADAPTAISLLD

[2] = molecular target: Hyi (PA1501), putative hydroxypyruvate isomerase from Pseudomonas aeruginosa (P. aeruginosa); assay: AUC; analytical ultracentrifugation, sedimentation velocity (AUC-SV), of each purified protein alone
Hyi = molecular target: T2, Hyi (Pseudomonas aeruginosa, UniProt Q9I3L1); assay: 1H-NMR, disappearance of hydroxypyruvate peaks; type: biochemical; details: 50 mM sodium phosphate in D2O, 1 mM MgCl2, pD 7.0; 37 °C; likely isomerization with H/D exchange, product peak not seen
T2 construct: gene PA1501; full-length ORF in pET-19m, N-terminal His6 tag (cleavage clearly told only for Gcl), expressed in E. coli Rosetta, Ni-NTA; dimer in solution
T2 sequence (Q9I3L1 1-260): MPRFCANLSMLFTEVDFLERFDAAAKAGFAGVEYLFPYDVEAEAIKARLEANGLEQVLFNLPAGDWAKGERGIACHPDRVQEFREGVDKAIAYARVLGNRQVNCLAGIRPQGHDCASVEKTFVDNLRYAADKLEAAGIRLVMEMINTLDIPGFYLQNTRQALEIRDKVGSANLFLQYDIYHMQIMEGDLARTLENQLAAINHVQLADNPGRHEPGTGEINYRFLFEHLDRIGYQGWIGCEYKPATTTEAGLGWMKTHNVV

Gcl [3] = molecular target: T1, Gcl; assay: GlxR-coupled NADH oxidation with added FAD; yellow protein ([…] nm); type: biochemical; details: 100 µM FAD roughly doubled activity; 37 °C
[4] = molecular target: the molecule itself; assay: AUC; analytical ultracentrifugation, sedimentation velocity (AUC-SV), of each purified protein alone
purified protein [5] = substrate: O=C(O)C(=O)CO; assay: purified protein; type: biochemical, Pseudomonas aeruginosa; details: 0.2 mM NADH, 20 mM MOPS, pH 7.5, 37 °C, h = 1.6 ± 0.2, some TSA may be present by tautomerization, no Hyi
purified protein [6] = substrate: O=CC(O)C(=O)O; assay: purified protein; type: biochemical, Pseudomonas aeruginosa; details: TSA made in situ by Gcl from 0-10 mM glyoxylate (concentration varied was glyoxylate, so apparent), 0.2 mM NADH, 20 mM MOPS, 37 °C, no Hyi

Q: With O=CC(=O)O [glyoxylate] as the molecule, how does the “1H-NMR, decrease of hydrated glyoxylate peak” value (Gcl [1]) read?
A: In the presence of Gcl, this hydrated glyoxylate peak slowly diminished in intensity

Q: For “Hyi (PA1501), putative hydroxypyruvate isomerase from Pseudomonas aeruginosa (enzyme)”, which stoichiometry N [2] is on record?
A: 2

Q: For O=C(O)C(=O)CO [hydroxypyruvate], which “1H-NMR, disappearance of hydroxypyruvate peaks” value (Hyi) is on record?
A: In the presence of Hyi, both hydroxypyruvate peaks had lessened in intensity

Q: Which “GlxR-coupled NADH oxidation with added FAD; yellow protein (445 nm)” value (Gcl [3]) does the source give for Cc1cc2nc3c(=O)[nH]c(=O)nc-3n(C[C@H](O)[C@H](O)[C@H](O)COP(=O)(O)OP(=O)(O)OC[C@H]3O[C@@H](n4cnc5c(N)ncnc54)[C@H](O)[C@@H]3O)c2cc1C [flavin adenine dinucleotide] here?
A: FAD supplementation roughly doubled the enzyme activity

B1: GlxR (PA1500), tartronate semialdehyde (TSA) reductase from Pseudomonas aeruginosa (enzyme, P. aeruginosa, UniProt Q9I3L2 1-296, looked up)
chain: MAKIGFIGTGIMGKPMAQNLQKAGHSLFLSTHHDAAPADLLEAGAIALANPKEVAQEAEFIIVMVPDTPQVEDVLFRKDGIAEGAGPNKVVIDMSSISPTATKGFAEKIKATGAQYLDAPVSGGEVGAKAATLSIMVGGCPNTFERALPLFQAMGKNITRVGGNGDGQTAKVANQIIVALNIQAVAEALLFAARNGADPAKVREALMGGFASSRILEVHGERMVKGTFDPGFRISLHQKDLNLALAGARELNLNLPNTANAQQVFSTCAAIGGSNWDHSALIKGLEHMANFSIRDE
notes: GlxR, tartronate semialdehyde reductase, ORF PA1500 of P. aeruginosa strain PAO1; the ORF was tagged and over-expressed; The methods state TEV cleavage of the His6 tag 'For Gcl' but then speak of 'each of the over-expressed proteins'; whether the tag of GlxR was removed is not clear; For crystallisation the elution and dialysis buffers differed (PBS based); also called apo-GlxR; GlxRα; source: E. …
Q: For B1, which “stoichiometry N” value [4] is on record?
A: 4

Q: And the K0.5 (purified protein [5])?
A: 16.7 mM

Q: What about the kcat (purified protein [5]) of the same molecule?
A: 33.5 s⁻¹

Q: What about the Km (purified protein [6]) of the same molecule?
A: 800 µM

Q: And the kcat (purified protein [6])?
A: 34.7 s⁻¹
